experiment: soluble on expression in E. coli; label from the status in PepcDB or PDB records

Sequence | soluble on expression in E. coli
MGSDKIHHHHHHMTAPMNVIDDYYVSLGKIGILNYRTMDESGENAFLRKYLPSLSSPTILDVGANIGGYSKAILRESPSARVYAFEPHPITFGNLTKDTAEDRFHALNIGIGAKEETLDFYDYRDEDGSSHASLYKEVIEDIHHRPSTSHRVSIRRLDDVCAELGLPHIALLKIDTEGHELAALQGAERLIRSGAIDVIQFEFNEMNVISRCFFKDFWDFLPDYRFFRLLPHGSIEIKTYIPSFCEIFAFQNIVCVKKDLPEFF | not soluble
MAHHHHHHMNPNQPPRRKTAFNEEFDVMQAIQEDRMAYHASIACHERCVHNYFFNNFYWREKTCMDNCLDKINQATVITNINYGKFEDVESKK | not soluble
MKKRLTESQFQEAIQGLEVGQQTIEIARGVLVDGKPQATFATSLGLTRGAVSQAVHRVWAAFEDKNLPEGYARVTAVLPEHQAYIVRKWEADAKKKQETKR | soluble
MSLSNNTINIALIGYGFVGKTFHAPLIRSVPGLNLAFVASRDEEKVKRDLPDVTVIASPEAAVQHPDVDLVVIASPNATHAPLARLALNAGKHVVVDKPFTLDMQEARELIALAEEKQRLLSVFHNRRWDSDYLGIRQVIEQGTLGAVKHFESHFDRFRPEVRVRWREQNVPGSGLWFDLGPHLIDQALQLFGLPQSVQGNIATLRDGAEINDWAHVVLNYPAHKVILHCSMLVAGGSSRFTVHGDKGSVIKARADQQESQLLAGVVPGSADWGQDDDPLVIYDASLQAHAQATPQGDQRQYYMLIRDALKGQIANPVPPVEALAVMAVLEAAVRSAESGMVQTLDLSDDERNTLREGHHHHHH | soluble
MININRYTLSNGLRVIHNEDNTTQMVALNLLYDVGARDEDPDHTGFAHLFEHLMFGGSIHVPDYDTPVQNAGGENNAWTNNDITNYYITLPRQNVETGFWLESDRMLSLDFNPRSLEVQRQVVIEEFKQRNLNQPYGDASHLLRALAYKVHPYQWPTIGKEISHIANATLEEVKAFFFKYYAPDNAILAVTGHITFEETVTLAEKWFGPIPRRNVAP | not soluble
MGSDKIHHHHHHMPVTAIFSPDTPAMGIGWRHPHYAGLLQTGPALDFIEVHSENFFAPGGAARAVLRQGREHYPVSLHGTGLSLGSACGVDEWHLAQLAELVQEIDPVRVSDHASFARGHLPGTDAPVHAADLLPVPFTREALAVMCSNVQRVQERLKRPIAVENLSAYLDWRAADMRETEFLAALAQRTGCSLLVDVNNLYVNAQNAWLRGALNSAPGDADAALASCRDWIDQIAASPVAELHLAGHAHLGDIVIDDHGSRVCAEVWQLYRHALARLGPVPTLIEWDTDVPALSVLLDEVARARGIAQGRPATRQPSAEARP | not soluble
MQENQQITKKEQYNLNKLQKRLRRNVGEAIADFNMIEEGDRIMVCLSGGKDSYTMLEILRNLQQSAPINFSLVAVNLDQKQPGFPEHVLPEYLEKLGVEYKIVEENTYGIVKEKIPEGKTTCSLCSRLRRGILYRTATELGATKIALGHHRDDILQTLFLNMFYGGKMKGMPPKLMSDDGKHIVIRPLAYCREKDIQRFADAKAFPIIPCNLCGSQPNLQRQVIADMLRDWDKRYPGRIETMFSAMQNVVPSHLCDTNLFDFKGITHGSEVVNGGDLAFDREEIPLQPACWQPEEDENQLDELRLNVVEVKLEHHHHHH | not soluble
MGSDKIHHHHHHMKVLVFDVSAPYALFRRPYTTTSSYTLPFPPRTTLLGLVGCVLGYSTPERLDSAKVAVQIKNPLKFLRTGTNFVETKKDKKASKRTRISLQLLKNPAYRVFFSWEDEDFERLKNLLEHSETIFTPYLGVASFIARLNYVGKYEATRVADFPCEVHTVVPNTVKLLPEPSHYLIFERVTRKMDKERNMLESAVYIFKRDLSPVKVEGGEVWRVGEQNIVWM | not soluble
GPGSMTPTRAQLAAFVDHTLLKPEATAADVAALVTEAAELGVYAVCVSPPMVPAAVQAGAGVRVASVAGFPSGKHVSAVKAHEAALAVASGAAEIDMVIDVGAALAGDLDGVRADIAAVRGAVGGAVLKVIVESSALLALADEHTLVRVCRAAEDAGADFVKTSTGFHPSGGASVRAVALMAEAVGGRLGVKASGGIRTAADALAMLDAGATRLGLSGTRAVLDGLG | soluble
MTTVRQRIDTQHRDAIHDAQLNIYGSRLATCGSDRLVKIFEVRPNGQSYPMAELVGHSGPVWKVSWAHPKYGGLLASASYDKKVIIWNEQQGRWQKAYEWAAHEASTTCVAFAPHQYGLMLASASADGDIGILRYDNSSNEWISSKIQKCHEQGVNSVCWAPGSADPAAKKRLVSAGNDKNVKIWALSQFGAKIFRDNGSKCHVTIRNARE | soluble
